Results on one sequence are retold here after US9688732B2, “Extracellular matrix metalloproteinase inducer (EMMPRIN) peptides and binding antibodies” (Rappaport Family Institute for Research in the Medical …, priority 2012, dated 2017).

This experiment addresses T1, Mouse recombinant EMMPRIN (mrEMMPRIN) (Mus musculus, UniProt P18572).
T1 construct: mrEMMPRIN is a chimeric protein composed of the extracellular portion of EMMPRIN fused to the Fc portion of human IgG; purchased R&D Systems
The experiment can be described thus: Indirect ELISA, specificity of the antibodies to EMMPRIN. The settings on record: mrEMMPRIN 200 ng/ml coat; OD of Fc binding subtracted; n=4. Here is the method: Indirect ELISA: This assay was developed to determine the specificity of the polyclonal antibodies for the EMMPRIN protein. Mouse recombinant EMMPRIN (mrEMMPRIN, 200 ng/ml in PBS, R&D Systems) or the Fc portion of the human IgG were applied on wells of a 96-well plate and incubated at 4° C. overnight to coat the wells. Excess antigens were removed by washing three times with wash buffer (0.05% Tween-20 in PBS), followed by blocking of the remaining free protein-binding sites with blocking buffer (1% BSA in PBS) for 2 hours at room temperature. After additional washes, strips of mouse recombinant EMMPRIN or Fc were coated with each of the primary antibodies (immune or pre-immune sera) diluted 1:500 and 1:5000 in PBS, and incubated for 2 hours at room temperature. […] The reaction was stopped with stop solution (0.25M HCL), and the absorbance of each well was measured at 450 nm and at a reference of 540 nm. […]
The specificity and ability of the antibodies to recognize mrEMMPRIN in its native structure were also tested by indirect ELISA, using mrEMMPRIN (200 ng/ml) or human IgG Fc protein (hFC, 200 ng/ml) to coat 96-well plates. […] P values were calculated by the Mann-Whitney T test. **, p<0.01, relative to pre-immune sera. […]
A general note: ELISA stands for enzyme-linked immunosorbent assay.

T1 sequence (P18572 with tags, fused parts or gaps isoform P18572-2 limits assumed): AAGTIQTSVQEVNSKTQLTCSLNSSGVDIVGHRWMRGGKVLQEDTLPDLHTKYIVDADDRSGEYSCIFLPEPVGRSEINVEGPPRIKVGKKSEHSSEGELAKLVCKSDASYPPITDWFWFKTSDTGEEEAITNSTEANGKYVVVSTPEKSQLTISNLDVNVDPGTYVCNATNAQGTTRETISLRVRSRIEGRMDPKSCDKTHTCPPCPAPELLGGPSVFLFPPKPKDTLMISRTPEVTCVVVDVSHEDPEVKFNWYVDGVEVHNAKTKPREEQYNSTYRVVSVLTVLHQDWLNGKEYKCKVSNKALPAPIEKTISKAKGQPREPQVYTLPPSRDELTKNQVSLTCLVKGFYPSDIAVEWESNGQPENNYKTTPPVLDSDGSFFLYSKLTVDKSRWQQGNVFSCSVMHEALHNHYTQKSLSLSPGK

Take “GHRWMRGGKVLC [Peptide 161, 12aa peptide from the EC-I domain of mouse EMMPRIN]”: the “Immune sera (OD values, indirect ELISA)” value came to 0.052 ± 0.026.
